Measured values published in patent publication US20210139548A1 (published 2021).
*1 amine or outer side, *2 acyl side, *3 side chain or, on linkers, in order; H or OH if unused. Side-chain parts run from the residue outwards. The star is where a group is joined. C18 diacid = O=C(O)CCCCCCCCCCCCCCCCC(=O)*; γGlu = O=C(O)[C@H](CCC(=O)[*:2])N[*:1]; Isovaleryl = CC(C)CC(=O)*; AEEA = NCCOCCOCC(=O)O

T1: human neuropeptide Y2 receptor (human, UniProt P49146 1-381)
T1 construct: whole, on cells; also called hNPY2 receptor; hNPY2-R
T1 sequence (looked up): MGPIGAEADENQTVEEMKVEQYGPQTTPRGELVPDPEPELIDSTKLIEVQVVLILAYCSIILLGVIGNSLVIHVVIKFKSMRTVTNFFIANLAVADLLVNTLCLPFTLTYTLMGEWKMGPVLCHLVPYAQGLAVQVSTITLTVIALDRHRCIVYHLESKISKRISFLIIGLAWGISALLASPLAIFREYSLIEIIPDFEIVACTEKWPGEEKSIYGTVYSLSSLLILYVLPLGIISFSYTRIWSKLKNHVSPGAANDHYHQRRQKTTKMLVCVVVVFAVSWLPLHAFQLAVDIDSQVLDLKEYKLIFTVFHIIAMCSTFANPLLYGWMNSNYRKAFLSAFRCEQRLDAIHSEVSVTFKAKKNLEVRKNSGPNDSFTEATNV

B1: Compound 45 (peptide)
peptide: Isovaleryl-APEK([AEEA-AEEA-γGlu-C18 diacid])PEEEASPESLQRYYVSLRHYYNWLTRQRY-NH2
SMILES: CC(C)CC(=O)N[C@@H](C)C(=O)N1CCC[C@H]1C(=O)N[C@@H](CCC(=O)O)C(=O)N[C@@H](CCCCNC(=O)COCCOCCNC(=O)COCCOCCNC(=O)CC[C@H](NC(=O)CCCCCCCCCCCCCCCCC(=O)O)C(=O)O)C(=O)N1CCC[C@H]1C(=O)N[C@@H](CCC(=O)O)C(=O)N[C@@H](CCC(=O)O)C(=O)N[C@@H](CCC(=O)O)C(=O)N[C@@H](C)C(=O)N[C@@H](CO)C(=O)N1CCC[C@H]1C(=O)N[C@@H](CCC(=O)O)C(=O)N[C@@H](CO)C(=O)N[C@@H](CC(C)C)C(=O)N[C@@H](CCC(N)=O)C(=O)N[C@@H](CCCNC(=N)N)C(=O)N[C@@H](Cc1ccc(O)cc1)C(=O)N[C@@H](Cc1ccc(O)cc1)C(=O)N[C@H](C(=O)N[C@@H](CO)C(=O)N[C@@H](CC(C)C)C(=O)N[C@@H](CCCNC(=N)N)C(=O)N[C@@H](Cc1c[nH]cn1)C(=O)N[C@@H](Cc1ccc(O)cc1)C(=O)N[C@@H](Cc1ccc(O)cc1)C(=O)N[C@@H](CC(N)=O)C(=O)N[C@@H](Cc1c[nH]c2ccccc12)C(=O)N[C@@H](CC(C)C)C(=O)N[C@H](C(=O)N[C@@H](CCCNC(=N)N)C(=O)N[C@@H](CCC(N)=O)C(=O)N[C@@H](CCCNC(=N)N)C(=O)N[C@@H](Cc1ccc(O)cc1)C(N)=O)[C@@H](C)O)C(C)C
B2: Compound 47 (peptide)
peptide: Isovaleryl-APEK([AEEA-AEEA-γGlu-C18 diacid])PPADASPEELQRYYVSLRHYYNWLTRQRY-NH2
SMILES: CC(C)CC(=O)N[C@@H](C)C(=O)N1CCC[C@H]1C(=O)N[C@@H](CCC(=O)O)C(=O)N[C@@H](CCCCNC(=O)COCCOCCNC(=O)COCCOCCNC(=O)CC[C@H](NC(=O)CCCCCCCCCCCCCCCCC(=O)O)C(=O)O)C(=O)N1CCC[C@H]1C(=O)N1CCC[C@H]1C(=O)N[C@@H](C)C(=O)N[C@@H](CC(=O)O)C(=O)N[C@@H](C)C(=O)N[C@@H](CO)C(=O)N1CCC[C@H]1C(=O)N[C@@H](CCC(=O)O)C(=O)N[C@@H](CCC(=O)O)C(=O)N[C@@H](CC(C)C)C(=O)N[C@@H](CCC(N)=O)C(=O)N[C@@H](CCCNC(=N)N)C(=O)N[C@@H](Cc1ccc(O)cc1)C(=O)N[C@@H](Cc1ccc(O)cc1)C(=O)N[C@H](C(=O)N[C@@H](CO)C(=O)N[C@@H](CC(C)C)C(=O)N[C@@H](CCCNC(=N)N)C(=O)N[C@@H](Cc1c[nH]cn1)C(=O)N[C@@H](Cc1ccc(O)cc1)C(=O)N[C@@H](Cc1ccc(O)cc1)C(=O)N[C@@H](CC(N)=O)C(=O)N[C@@H](Cc1c[nH]c2ccccc12)C(=O)N[C@@H](CC(C)C)C(=O)N[C@H](C(=O)N[C@@H](CCCNC(=N)N)C(=O)N[C@@H](CCC(N)=O)C(=O)N[C@@H](CCCNC(=N)N)C(=O)N[C@@H](Cc1ccc(O)cc1)C(N)=O)[C@@H](C)O)C(C)C
B3: Compound 48 (peptide)
peptide: Isovaleryl-APEK([AEEA-AEEA-γGlu-C18 diacid])PEEDTEPEELQRYYVSLRHYYNWLTRQRY-NH2
SMILES: CC(C)CC(=O)N[C@@H](C)C(=O)N1CCC[C@H]1C(=O)N[C@@H](CCC(=O)O)C(=O)N[C@@H](CCCCNC(=O)COCCOCCNC(=O)COCCOCCNC(=O)CC[C@H](NC(=O)CCCCCCCCCCCCCCCCC(=O)O)C(=O)O)C(=O)N1CCC[C@H]1C(=O)N[C@@H](CCC(=O)O)C(=O)N[C@@H](CCC(=O)O)C(=O)N[C@@H](CC(=O)O)C(=O)N[C@H](C(=O)N[C@@H](CCC(=O)O)C(=O)N1CCC[C@H]1C(=O)N[C@@H](CCC(=O)O)C(=O)N[C@@H](CCC(=O)O)C(=O)N[C@@H](CC(C)C)C(=O)N[C@@H](CCC(N)=O)C(=O)N[C@@H](CCCNC(=N)N)C(=O)N[C@@H](Cc1ccc(O)cc1)C(=O)N[C@@H](Cc1ccc(O)cc1)C(=O)N[C@H](C(=O)N[C@@H](CO)C(=O)N[C@@H](CC(C)C)C(=O)N[C@@H](CCCNC(=N)N)C(=O)N[C@@H](Cc1c[nH]cn1)C(=O)N[C@@H](Cc1ccc(O)cc1)C(=O)N[C@@H](Cc1ccc(O)cc1)C(=O)N[C@@H](CC(N)=O)C(=O)N[C@@H](Cc1c[nH]c2ccccc12)C(=O)N[C@@H](CC(C)C)C(=O)N[C@H](C(=O)N[C@@H](CCCNC(=N)N)C(=O)N[C@@H](CCC(N)=O)C(=O)N[C@@H](CCCNC(=N)N)C(=O)N[C@@H](Cc1ccc(O)cc1)C(N)=O)[C@@H](C)O)C(C)C)[C@@H](C)O
B4: Compound 49 (peptide)
peptide: Isovaleryl-APEK([AEEA-AEEA-γGlu-C18 diacid])PEEDASPEELQQYYVELRHYYNWLTRQRY-NH2
SMILES: CC(C)CC(=O)N[C@@H](C)C(=O)N1CCC[C@H]1C(=O)N[C@@H](CCC(=O)O)C(=O)N[C@@H](CCCCNC(=O)COCCOCCNC(=O)COCCOCCNC(=O)CC[C@H](NC(=O)CCCCCCCCCCCCCCCCC(=O)O)C(=O)O)C(=O)N1CCC[C@H]1C(=O)N[C@@H](CCC(=O)O)C(=O)N[C@@H](CCC(=O)O)C(=O)N[C@@H](CC(=O)O)C(=O)N[C@@H](C)C(=O)N[C@@H](CO)C(=O)N1CCC[C@H]1C(=O)N[C@@H](CCC(=O)O)C(=O)N[C@@H](CCC(=O)O)C(=O)N[C@@H](CC(C)C)C(=O)N[C@@H](CCC(N)=O)C(=O)N[C@@H](CCC(N)=O)C(=O)N[C@@H](Cc1ccc(O)cc1)C(=O)N[C@@H](Cc1ccc(O)cc1)C(=O)N[C@H](C(=O)N[C@@H](CCC(=O)O)C(=O)N[C@@H](CC(C)C)C(=O)N[C@@H](CCCNC(=N)N)C(=O)N[C@@H](Cc1c[nH]cn1)C(=O)N[C@@H](Cc1ccc(O)cc1)C(=O)N[C@@H](Cc1ccc(O)cc1)C(=O)N[C@@H](CC(N)=O)C(=O)N[C@@H](Cc1c[nH]c2ccccc12)C(=O)N[C@@H](CC(C)C)C(=O)N[C@H](C(=O)N[C@@H](CCCNC(=N)N)C(=O)N[C@@H](CCC(N)=O)C(=O)N[C@@H](CCCNC(=N)N)C(=O)N[C@@H](Cc1ccc(O)cc1)C(N)=O)[C@@H](C)O)C(C)C
B5: Compound 51 (peptide)
peptide: Isovaleryl-APEK([AEEA-AEEA-γGlu-C18 diacid])AEEEASPEELQRYYVSLRHYYNWLTRQRY-NH2
SMILES: CC(C)CC(=O)N[C@@H](C)C(=O)N1CCC[C@H]1C(=O)N[C@@H](CCC(=O)O)C(=O)N[C@@H](CCCCNC(=O)COCCOCCNC(=O)COCCOCCNC(=O)CC[C@H](NC(=O)CCCCCCCCCCCCCCCCC(=O)O)C(=O)O)C(=O)N[C@@H](C)C(=O)N[C@@H](CCC(=O)O)C(=O)N[C@@H](CCC(=O)O)C(=O)N[C@@H](CCC(=O)O)C(=O)N[C@@H](C)C(=O)N[C@@H](CO)C(=O)N1CCC[C@H]1C(=O)N[C@@H](CCC(=O)O)C(=O)N[C@@H](CCC(=O)O)C(=O)N[C@@H](CC(C)C)C(=O)N[C@@H](CCC(N)=O)C(=O)N[C@@H](CCCNC(=N)N)C(=O)N[C@@H](Cc1ccc(O)cc1)C(=O)N[C@@H](Cc1ccc(O)cc1)C(=O)N[C@H](C(=O)N[C@@H](CO)C(=O)N[C@@H](CC(C)C)C(=O)N[C@@H](CCCNC(=N)N)C(=O)N[C@@H](Cc1c[nH]cn1)C(=O)N[C@@H](Cc1ccc(O)cc1)C(=O)N[C@@H](Cc1ccc(O)cc1)C(=O)N[C@@H](CC(N)=O)C(=O)N[C@@H](Cc1c[nH]c2ccccc12)C(=O)N[C@@H](CC(C)C)C(=O)N[C@H](C(=O)N[C@@H](CCCNC(=N)N)C(=O)N[C@@H](CCC(N)=O)C(=O)N[C@@H](CCCNC(=N)N)C(=O)N[C@@H](Cc1ccc(O)cc1)C(N)=O)[C@@H](C)O)C(C)C
B6: Compound 52 (peptide)
peptide: Isovaleryl-APEK([AEEA-AEEA-γGlu-C18 diacid])AEEDASEEELQRYYVSLRHYYNWLTRQRY-NH2
SMILES: CC(C)CC(=O)N[C@@H](C)C(=O)N1CCC[C@H]1C(=O)N[C@@H](CCC(=O)O)C(=O)N[C@@H](CCCCNC(=O)COCCOCCNC(=O)COCCOCCNC(=O)CC[C@H](NC(=O)CCCCCCCCCCCCCCCCC(=O)O)C(=O)O)C(=O)N[C@@H](C)C(=O)N[C@@H](CCC(=O)O)C(=O)N[C@@H](CCC(=O)O)C(=O)N[C@@H](CC(=O)O)C(=O)N[C@@H](C)C(=O)N[C@@H](CO)C(=O)N[C@@H](CCC(=O)O)C(=O)N[C@@H](CCC(=O)O)C(=O)N[C@@H](CCC(=O)O)C(=O)N[C@@H](CC(C)C)C(=O)N[C@@H](CCC(N)=O)C(=O)N[C@@H](CCCNC(=N)N)C(=O)N[C@@H](Cc1ccc(O)cc1)C(=O)N[C@@H](Cc1ccc(O)cc1)C(=O)N[C@H](C(=O)N[C@@H](CO)C(=O)N[C@@H](CC(C)C)C(=O)N[C@@H](CCCNC(=N)N)C(=O)N[C@@H](Cc1c[nH]cn1)C(=O)N[C@@H](Cc1ccc(O)cc1)C(=O)N[C@@H](Cc1ccc(O)cc1)C(=O)N[C@@H](CC(N)=O)C(=O)N[C@@H](Cc1c[nH]c2ccccc12)C(=O)N[C@@H](CC(C)C)C(=O)N[C@H](C(=O)N[C@@H](CCCNC(=N)N)C(=O)N[C@@H](CCC(N)=O)C(=O)N[C@@H](CCCNC(=N)N)C(=O)N[C@@H](Cc1ccc(O)cc1)C(N)=O)[C@@H](C)O)C(C)C

Each binder was assayed against T1, human neuropeptide Y2 receptor (assay: radioligand competition (125I-PYY(1-36)), hNPY2R membranes).
Outline: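 Commercial human Y2 receptor membranes (0.5 μg protein/well) were incubated with peptide for 2 h at room temperature in 50 mM HEPES, 5 mM MgCl₂, 1 mM CaCl₂, pH 7.4, with 0.2% ovalbumin. Bound radioligand was separated on PEI-soaked GF/C filters and counted by scintillation, and IC₅₀ came from nonlinear sigmoidal regression.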

Question: With B1 as the binder, how does the Ki read?
Answer: The Ki was 3.97 nM.

Question: For B2, which Ki is on record?
Answer: The Ki was 0.42 nM.

Question: With B3 as the binder, how does the Ki read?
Answer: The Ki was 38.9 nM.

Question: With B4 as the binder, how does the Ki read?
Answer: The Ki was 0.89 nM.

Question: How did the Ki turn out when B5 was run?
Answer: Its Ki is 39.4 nM.

Question: For B6, which Ki is on record?
Answer: The Ki was 8.53 nM.
